From the supplement of paper PMC9112550, “Optimization of the antimicrobial peptide Bac7 by deep mutational scanning” (BMC Biology, 2022)

Test system: Escherichia coli TOP10
Experiment: shrunken log2 fold change of peptide-encoding DNA abundance (4.5 h post-induction vs induction); higher = less antimicrobial activity (less host growth inhibition)
Conditions: time post-induction: 4.5 h; library: site-saturation at positions 5, 18, 19, 20
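Note: peptides expressed intracellularly from a pBAD plasmid library in pooled LB shake-flask culture, induced with 0.3% L-arabinose, DNA abundance read by NGS, three biological replicates, DESeq2 with apeglm shrinkage.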

| Sequence | shrunken log2 fold change |
| --- | --- |
| RRIRYRPPRLPRPRPRPTIPPRP | -0.572 |
| RRIRGRPPRLPRPRPRPLACPRP | 0.975 |
| RRIRCRPPRLPRPRPRPWYYPRP | -0.698 |
| RRIRERPPRLPRPRPRPSHEPRP | -0.0595 |
| RRIRERPPRLPRPRPRPPCGPRP | 0.259 |
| RRIRLRPPRLPRPRPRPYNYPRP | -0.439 |
| RRIRMRPPRLPRPRPRPYASPRP | -0.0515 |
| RRIRWRPPRLPRPRPRPAFSPRP | 0.383 |
| RRIRCRPPRLPRPRPRPLAEPRP | 0.242 |
| RRIRKRPPRLPRPRPRPGRMPRP | 0.554 |
| RRIRIRPPRLPRPRPRPHYKPRP | -0.756 |
| RRIRLRPPRLPRPRPRPGTHPRP | -0.107 |
| RRIRWRPPRLPRPRPRPQRLPRP | 0.159 |
| RRIRKRPPRLPRPRPRPMTIPRP | -0.191 |
| RRIRKRPPRLPRPRPRPPKSPRP | 0.462 |
| RRIRCRPPRLPRPRPRPCTPPRP | -0.778 |
| RRIRMRPPRLPRPRPRPSPQPRP | 0.716 |
| RRIRARPPRLPRPRPRPHKRPRP | 0.157 |
| RRIRTRPPRLPRPRPRPKCAPRP | 0.909 |
| RRIRKRPPRLPRPRPRPNSCPRP | 0.188 |
| RRIRLRPPRLPRPRPRPTTTPRP | 0.00266 |
| RRIRSRPPRLPRPRPRPMLMPRP | 0.00173 |
| RRIRLRPPRLPRPRPRPAWIPRP | 0.0321 |
| RRIRLRPPRLPRPRPRPMAAPRP | 0.627 |
| RRIRDRPPRLPRPRPRPKADPRP | -0.0266 |

| Sequence | shrunken log2 fold change |
| --- | --- |
| RRIRWRPPRLPRPRPRPPKQPRP | 1.07 |
| RRIRQRPPRLPRPRPRPQPGPRP | 0.0446 |
| RRIRHRPPRLPRPRPRPFARPRP | -0.107 |
| RRIRPRPPRLPRPRPRPIGHPRP | -0.0228 |
| RRIRQRPPRLPRPRPRPNKPPRP | -0.195 |
| RRIRQRPPRLPRPRPRPERVPRP | 0.0836 |
| RRIRHRPPRLPRPRPRPWPAPRP | 0.292 |
| RRIRDRPPRLPRPRPRPFVLPRP | 0.045 |
| RRIRWRPPRLPRPRPRPCEYPRP | -0.379 |
| RRIRVRPPRLPRPRPRPSIHPRP | -0.755 |
| RRIRTRPPRLPRPRPRPAAPPRP | 0.275 |
| RRIRIRPPRLPRPRPRPHKLPRP | -0.552 |
| RRIRSRPPRLPRPRPRPVLVPRP | 0.242 |
| RRIRARPPRLPRPRPRPGDEPRP | 0.393 |
| RRIRCRPPRLPRPRPRPRDFPRP | 0.0317 |
| RRIRERPPRLPRPRPRPVQVPRP | -0.227 |
| RRIRRRPPRLPRPRPRPWARPRP | 0.222 |
| RRIRIRPPRLPRPRPRPDEAPRP | 0.0301 |
| RRIRYRPPRLPRPRPRPHQVPRP | -0.208 |
| RRIRERPPRLPRPRPRPHGIPRP | -0.00973 |
| RRIRGRPPRLPRPRPRPTCYPRP | 0.34 |
| RRIRNRPPRLPRPRPRPWRVPRP | 0.515 |
| RRIRSRPPRLPRPRPRPYWVPRP | -0.314 |
| RRIRMRPPRLPRPRPRPPSLPRP | 0.619 |
| RRIRDRPPRLPRPRPRPVYMPRP | -0.506 |

| Sequence | shrunken log2 fold change |
| --- | --- |
| RRIRGRPPRLPRPRPRPEHLPRP | 0.494 |
| RRIRGRPPRLPRPRPRPCRRPRP | 0.117 |
| RRIRPRPPRLPRPRPRPGTFPRP | -0.226 |
| RRIRDRPPRLPRPRPRPHAVPRP | 0.163 |
| RRIRVRPPRLPRPRPRPKPNPRP | 0.275 |
| RRIRDRPPRLPRPRPRPFCSPRP | 0.217 |
| RRIRTRPPRLPRPRPRPSDPPRP | -0.429 |
| RRIRYRPPRLPRPRPRPGWWPRP | 0.316 |
| RRIRCRPPRLPRPRPRPMQSPRP | -0.0765 |
| RRIRPRPPRLPRPRPRPLGEPRP | -0.155 |
| RRIRIRPPRLPRPRPRPFYLPRP | -0.882 |
| RRIRDRPPRLPRPRPRPLHYPRP | -0.0982 |
| RRIRGRPPRLPRPRPRPDWYPRP | 0.134 |
| RRIRYRPPRLPRPRPRPRVAPRP | 0.0343 |
| RRIRDRPPRLPRPRPRPNFVPRP | -0.0655 |
| RRIRVRPPRLPRPRPRPVCMPRP | 0.0454 |
| RRIRERPPRLPRPRPRPPDVPRP | -0.108 |
| RRIRCRPPRLPRPRPRPRQDPRP | -0.0742 |
| RRIRQRPPRLPRPRPRPANHPRP | -0.728 |
| RRIRWRPPRLPRPRPRPRVWPRP | 0.646 |
| RRIRMRPPRLPRPRPRPRDKPRP | 0.0704 |
| RRIRIRPPRLPRPRPRPGNHPRP | -0.227 |
| RRIRRRPPRLPRPRPRPKEGPRP | -0.000243 |
| RRIRYRPPRLPRPRPRPDNHPRP | -0.135 |
| RRIRQRPPRLPRPRPRPSHKPRP | -0.0927 |
